From article PMC4156824 (Molecular cell, 2014)

B1: Mcm2 (natural protein, S. cerevisiae, UniProt P29469 1-868, looked up)
chain: MSDNRRRRREEDDSDSENELPPSSPQQHFRGGMNPVSSPIGSPDMINPEGDDNEVDDVPDIDEVEEQMNEVDLMDDNMYEDYAADHNRDRYDPDQVDDREQQELSLSERRRIDAQLNERDRLLRNVAYIDDEDEEQEGAAQLDEMGLPVQRRRRRRQYEDLENSDDDLLSDMDIDPLREELTLESLSNVKANSYSEWITQPNVSRTIARELKSFLLEYTDETGRSVYGARIRTLGEMNSESLEVNYRHLAESKAILALFLAKCPEEMLKIFDLVAMEATELHYPDYARIHSEIHVRISDFPTIYSLRELRESNLSSLVRVTGVVTRRTGVFPQLKYVKFNCLKCGSILGPFFQDSNEEIRISFCTNCKSKGPFRVNGEKTVYRNYQRVTLQEAPGTVPPGRLPRHREVILLADLVDVSKPGEEVEVTGIYKNNYDGNLNAKNGFPVFATIIEANSIKRREGNTANEGEEGLDVFSWTEEEEREFRKISRDRGIIDKIISSMAPSIYGHRDIKTAVACSLFGGVPKNVNGKHSIRGDINVLLLGDPGTAKSQILKYVEKTAHRAVFATGQGASAVGLTASVRKDPITKEWTLEGGALVLADKGVCLIDEFDKMNDQDRTSIHEAMEQQSISISKAGIVTTLQARCSIIAAANPNGGRYNSTLPLAQNVSLTEPILSRFDILCVVRDLVDEEADERLATFVVDSHVRSHPENDEDREGEELKNNGESAIEQGEDEINEQLNARQRRLQRQRKKEEEISPIPQELLMKYIHYARTKIYPKLHQMDMDKVSRVYADLRRESISTGSFPITVRHLESILRIAESFAKMRLSEFVSSYDLDRAIKVVVDSFVDAQKVSVRRQLRRSFAIYTLGH
B2: Mcm3 (Flag-tagged subunit of Mcm2-7) (natural protein, S. cerevisiae, UniProt P24279 1-971, looked up)
chain: MEGSTGFDGDATTFFAPDAVFGDRVRRFQEFLDTFTSYRDSVRSIQVYNSNNAANYNDDQDDADERDLLGDDDGDDLEKEKKAASSTSLNILPHRIIISLDDLREFDRSFWSGILVEPAYFIPPAEKALTDLADSMDDVPHPNASAVSSRHPWKLSFKGSFGAHALSPRTLTAQHLNKLVSVEGIVTKTSLVRPKLIRSVHYAAKTGRFHYRDYTDATTTLTTRIPTPAIYPTEDTEGNKLTTEYGYSTFIDHQRITVQEMPEMAPAGQLPRSIDVILDDDLVDKTKPGDRVNVVGVFKSLGAGGMNQSNSNTLIGFKTLILGNTVYPLHARSTGVAARQMLTDFDIRNINKLSKKKDIFDILSQSLAPSIYGHDHIKKAILLMLMGGVEKNLENGSHLRGDINILMVGDPSTAKSQLLRFVLNTASLAIATTGRGSSGVGLTAAVTTDRETGERRLEAGAMVLADRGVVCIDEFDKMTDVDRVAIHEVMEQQTVTIAKAGIHTTLNARCSVIAAANPVFGQYDVNRDPHQNIALPDSLLSRFDLLFVVTDDINEIRDRSISEHVLRTHRYLPPGYLEGEPVRERLNLSLAVGEDADINPEEHSNSGAGVENEGEDDEDHVFEKFNPLLQAGAKLAKNKGNYNGTEIPKLVTIPFLRKYVQYAKERVIPQLTQEAINVIVKNYTDLRNDDNTKKSPITARTLETLIRLATAHAKVRLSKTVNKVDAKVAANLLRFALLGEDIGNDIDEEESEYEEALSKRSPQKSPKKRQRVRQPASNSGSPIKSTPRRSTASSVNATPSSARRILRFQDDEQNAGEDDNDIMSPLPADEEAELQRRLQLGLRVSPRRREHLHAPEEGSSGPLTEVGTPRLPNVSSAGQDDEQQQSVISFDNVEPGTISTGRLSLISGIIARLMQTEIFEEESYPVASLFERINEELPEEEKFSAQEYLAGLKIMSDRNNLMVADDKVWRV
B3: Mcm7 (natural protein, S. cerevisiae, UniProt P38132 1-845, looked up)
chain: MSAALPSIQLPVDYNNLFNEITDFLVTFKQDTLSSDATRNENEDENLDAENIEQHLLEKGPKYMAMLQKVANRELNSVIIDLDDILQYQNEKFLQGTQADDLVSAIQQNANHFTELFCRAIDNNMPLPTKEIDYKDDVLDVILNQRRLRNERMLSDRTNEIRSENLMDTTMDPPSSMNDALREVVEDETELFPPNLTRRYFLYFKPLSQNCARRYRKKAISSKPLSVRQIKGDFLGQLITVRGIITRVSDVKPAVEVIAYTCDQCGYEVFQEVNSRTFTPLSECTSEECSQNQTKGQLFMSTRASKFSAFQECKIQELSQQVPVGHIPRSLNIHVNGTLVRSLSPGDIVDVTGIFLPAPYTGFKALKAGLLTETYLEAQFVRQHKKKFASFSLTSDVEERVMELITSGDVYNRLAKSIAPEIYGNLDVKKALLLLLVGGVDKRVGDGMKIRGDINVCLMGDPGVAKSQLLKAICKISPRGVYTTGKGSSGVGLTAAVMKDPVTDEMILEGGALVLADNGICCIDEFDKMDESDRTAIHEVMEQQTISISKAGINTTLNARTSILAAANPLYGRYNPRLSPLDNINLPAALLSRFDILFLMLDIPSRDDDEKLAEHVTYVHMHNKQPDLDFTPVEPSKMREYIAYAKTKRPVMSEAVNDYVVQAYIRLRQDSKREMDSKFSFGQATPRTLLGIIRLSQALAKLRLADMVDIDDVEEALRLVRVSKESLYQETNKSKEDESPTTKIFTIIKKMLQETGKNTLSYENIVKTVRLRGFTMLQLSNCIQEYSYLNVWHLINEGNTLKFVDDGTMDTDQEDSLVSTPKLAPQTTASANVSAQDSDIDLQDA
B4: Mcm4 (natural protein, S. cerevisiae, UniProt P30665 1-933, looked up)
chain: MSQQSSSPTKEDNNSSSPVVPNPDSVPPQLSSPALFYSSSSSQGDIYGRNNSQNLSQGEGNIRAAIGSSPLNFPSSSQRQNSDVFQSQGRQGRIRSSASASGRSRYHSDLRSDRALPTSSSSLGRNGQNRVHMRRNDIHTSDLSSPRRIVDFDTRSGVNTLDTSSSSAPPSEASEPLRIIWGTNVSIQECTTNFRNFLMSFKYKFRKILDEREEFINNTTDEELYYIKQLNEMRELGTSNLNLDARNLLAYKQTEDLYHQLLNYPQEVISIMDQTIKDCMVSLIVDNNLDYDLDEIETKFYKVRPYNVGSCKGMRELNPNDIDKLINLKGLVLRSTPVIPDMKVAFFKCNVCDHTMAVEIDRGVIQEPARCERIDCNEPNSMSLIHNRCSFADKQVIKLQETPDFVPDGQTPHSISLCVYDELVDSCRAGDRIEVTGTFRSIPIRANSRQRVLKSLYKTYVDVVHVKKVSDKRLDVDTSTIEQELMQNKVDHNEVEEVRQITDQDLAKIREVAAREDLYSLLARSIAPSIYELEDVKKGILLQLFGGTNKTFTKGGRYRGDINILLCGDPSTSKSQILQYVHKITPRGVYTSGKGSSAVGLTAYITRDVDTKQLVLESGALVLSDGGVCCIDEFDKMSDSTRSVLHEVMEQQTISIAKAGIITTLNARSSILASANPIGSRYNPNLPVTENIDLPPPLLSRFDLVYLVLDKVDEKNDRELAKHLTNLYLEDKPEHISQDDVLPVEFLTMYISYAKEHIHPIITEAAKTELVRAYVGMRKMGDDSRSDEKRITATTRQLESMIRLAEAHAKMKLKNVVELEDVQEAVRLIRSAIKDYATDPKTGKIDMNLVQTGKSVIQRKLQEDLSREIMNVLKDQASDSMSFNELIKQINEHSQDRVESSDIQEALSRLQQEDKVIVLGEGVRRSVRLNNRV

Assays:
[1] = target: B2; assay: co-IP
Mcm6 = Mcm6 (S. cerevisiae, UniProt P53091 1-1017); assay: co-IP
Sequence of Mcm6 (P53091 whole entry): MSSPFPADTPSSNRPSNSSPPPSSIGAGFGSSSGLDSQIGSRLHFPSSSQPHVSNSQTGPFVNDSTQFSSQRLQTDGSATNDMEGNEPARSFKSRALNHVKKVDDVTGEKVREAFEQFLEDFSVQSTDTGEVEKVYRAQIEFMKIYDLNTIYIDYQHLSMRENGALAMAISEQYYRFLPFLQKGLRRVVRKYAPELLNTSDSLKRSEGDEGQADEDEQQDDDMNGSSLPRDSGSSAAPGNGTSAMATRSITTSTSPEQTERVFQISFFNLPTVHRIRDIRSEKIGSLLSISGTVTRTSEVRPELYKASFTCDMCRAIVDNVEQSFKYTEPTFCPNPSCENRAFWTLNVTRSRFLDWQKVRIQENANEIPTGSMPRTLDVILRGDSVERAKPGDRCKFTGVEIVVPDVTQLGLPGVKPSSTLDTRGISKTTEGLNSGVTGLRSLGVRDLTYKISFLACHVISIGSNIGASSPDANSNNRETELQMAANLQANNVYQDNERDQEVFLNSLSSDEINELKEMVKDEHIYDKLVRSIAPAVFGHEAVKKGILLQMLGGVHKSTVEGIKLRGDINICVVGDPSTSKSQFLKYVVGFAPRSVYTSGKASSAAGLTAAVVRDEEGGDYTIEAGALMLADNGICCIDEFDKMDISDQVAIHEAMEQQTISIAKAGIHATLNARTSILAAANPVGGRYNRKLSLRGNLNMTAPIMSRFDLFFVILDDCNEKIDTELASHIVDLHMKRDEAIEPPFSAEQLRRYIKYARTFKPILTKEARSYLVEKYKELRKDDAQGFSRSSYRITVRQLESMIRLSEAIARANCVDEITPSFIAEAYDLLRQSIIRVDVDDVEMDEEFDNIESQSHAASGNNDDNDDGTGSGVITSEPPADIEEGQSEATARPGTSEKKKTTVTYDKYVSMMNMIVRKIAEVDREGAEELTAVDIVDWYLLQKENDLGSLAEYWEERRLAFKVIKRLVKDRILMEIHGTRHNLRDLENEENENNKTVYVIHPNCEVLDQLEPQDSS

| binding result [1] | binding result (Mcm6) | Binder |
| --- | --- | --- |
| binds | – | B1 |
| – | binds | B2 |
| binds | – | B3 |
| binds | – | B4 |
